B1: AMMO1 (antibody, V domains shown)
VH: QVQLVQSGADVKKPGASVKVSCKASGYTFIHFGISWVRQAPGQGLEWMGWIDTNNGNTNYAQSLQGRVTMTTDTSTGTAYMELRSLSTDDTAVYFCARALEMGHRSGFPFDYWGQGVLVTVSP
VL: SYELTQPPSVSVAPGQRATITCGGHNIGAKNVHWYQQKPGQAPVLVIQYDSDRPSGIPERFSGSNSGSTATLTISRVEAGDEADYYCQVWDSGRGHPLYVFGGGTKVTVL
B2: AMMO1, human gH/gL-specific neutralizing antibody (recombinant IgG1) (antibody, V domains shown)
VH: B1 VH
VL: B1 VL

What was measured:
[1] = target: T1, EBV gH/gL (gH 19-679 linked to gL 24-137 by (G4S)3) (Epstein-Barr virus (human …)); assay: SPR; details: both partners purified
T1 construct: also called gH/gL WT; source: 293F, transfected, purified (Ni-NTA, SEC); not shown: HIS Tag, C-terminal, kept

[2] = target: T2, EBV gH/gL on the surface of CHO-K1 effector cells (Epstein-Barr virus, UniProt P03231;P03212); assay: flow cytometry on cells; details: one partner purified
T2 construct: also called gH/gL and gB fusion machinery

| Binder | koff [1] [s⁻¹] | kon [1] [M⁻¹ s⁻¹] | binding result [2] |
| --- | --- | --- | --- |
| B1 | 8.5e-05 | 577000 |  |
| B2 |  |  | binds |

Reference: paper PMC8595662 (Nature Communications, 2021)
